The values below come from patent US20050036993A1, “Immune activation by double-stranded polynucleotides” (priority 1998, published 2005).

In experiment [1] the test system is rat 90K tumor-associated immunostimulator. Put plainly: Northern analysis of 90K tumor-associated immunostimulator RNA in FRTL-5 cells. Format: cell-based. To be noted: 5 Tg nucleic acid or 100 U/ml KIFN, Northern after 48 hours. From the text: 12: 19-33 (1998)). Filters were sequentially hybridized with the rat 90K, MHC Class I, MHC Class II, and GAPDH probes. […] The glyceraldehyde phosphate dehydrogenase (GAPDH) probe was cut from a pTRI-GAPDH-Rat template (Ambion, Tex.).

Experiment [2] has as its system MHC Class I, MHC Class II. Put plainly: Northern analysis of MHC Class I and Class II RNA after infection or transfection of FRTL-5 cells. As to conditions: 5 Tg nucleic acid transfected (Lipofectamine Plus), HSV-2 infection or KIFN, Northern 48 hours after treatment.
Experiment [3] deals with LMP2, TAP-1, invariant chain (Ii), HLA-DM, B7, CIITA, RFX5, IRF-1, PKR, IFN. Put plainly: Northern analysis of genes responsible for antigen presentation in FRTL-5 cells. Type of experiment: cell-based, rat. Here is the method: In some experiments, cells were treated with 100 U/ml rat KIFN for the last 48 hours of culture.
Transfection—All procedures used 10 cm dishes and transfection with Lipofectamine Plus (GIBCO BRL, Gaithersburg, Md.). […] Transfections with Lipofectamine (GIBCO BRL, Gaithersburg, Md.), with DEAE dextran, or using electroporation, performed as in Example 1, yielded the same results.
Nucleic Acids—The following polynucleotides were used in these experiments, both made by Pharmacia Biotech, Piscataway, N.J.: poly(dI)/poly(dC) and poly(I)/poly(C). The same results were obtained, however, using sonicated salmon sperm DNA (Stratagene, La Jolla, Calif.), bacterial DNA or calf thymus DNA (Sigma, St. Louis, Mo.), and FRTL-5 cell genomic DNA. […] Viral DNA from Human Herpes Simplex virus and viral DNA oligonucleotides from HIV, HTLV-1, Foamy virus, and cytomegalic virus (CMV) as well as the plasmid vectors pcDNA3 and pRc/RSV, used with or without methylation, also duplicated the results with the ds synthetic polynucleotides.
The probe for rat CIITA is a cloned rat Type III CIITA cDNA fragment in pcDNA3 (K. Suzuki et al., manuscript in preparation). EcoRI is used to release a 4098 bp fragment as the probe.

The test system of experiment [4] is Stat 1 (Tyr 701), Stat 3 (Tyr 705). Kind of experiment: Western blot of phosphorylated Stat 1, Stat 3 and total Stat 1 in FRTL-5 cells. Type of experiment: cell-based, rat. How it is done:
SDS-polyacrylamide gel electrophoresis and Western blotting—Transfected FRTL-5 cells or FRTL-5 cells treated with KIFN (100 U/ml protein) which had been grown in 100 mm dishes (Nalge Nunc International), were placed on ice before harvesting, washed with ice-cold Dulbecco's PBS (DPBS), released by gentle scraping with a rubber policeman, and collected by low-speed centrifugation at 833×g for 10 min in a Sorvall table-top centrifuge (rotor H-1000, Dupont Company, Wilmington Del.). After a second washing in DPBS, cells were resuspended in cold lysis buffer [50 mM HEPES pH 7.0,2 mM MgCl2; 250 mM NaCl; 0.1 mM EDTA; 0.1 mM EGTA; 1 mM DTT; 2 mM Na3VO4; 10 mM Na4P2O7; 10 mM NaF; 0.1% NP-40; 0.5 mM p-amidinophenyl methanesulfonyl fluoride hydrochloride (p-APMSF) plus a protease inhibitor cocktail ([…]; 2.5 mg/ml of antipain; 2.5 mg/ml of chymostatin; 0.25 mg/ml leupeptin; 0.25 mg/ml antipain]. The cells were allowed to lyse on ice for 60 min, after which they were vortexed vigorously and centrifuged at 4° C. and at 12,000 rpm in a microcentrifuge for 10 min. The supernatant was collected and frozen in aliquots at −70° C. […] The membrane was again washed and protein detected by incubation for 1 min with ECL detection reagent (Amersham, Arlington Heights, Ill.) followed by exposure to X-ray film. […]

B1: KIFN: K-interferon (gamma interferon, character lost), rat recombinant, 100 U/ml (protein, UniProt P01581 23-156, looked up)
Interferon gamma: QGTLIESLESLKNYFNSSSMDAMEGKSLLLDIWRNWQKDGNTKILESQIISFYLRLFEVLKDNQAISNNISVIESHLITNFFSNSKAKKDAFMSIAKFEVNNPQIQHKAVNELIRVIHQLSPESSLRKRKRSRC
With B1, the “90K RNA levels” value in experiment [1] is given as “weaker”. For the same molecule, the “MHC RNA levels / MHC expression (Class I and Class II)” value in experiment [2] is recorded as “increases Class II more than Class I levels”. The “expression of genes responsible for antigen presentation” value in experiment [3] (5 Tg dsDNA or 100 U/ml KIFN, 3 to 72 hours) was “induced”. The “induction of CIITA, RFX5 and IRF-1” value in experiment [3] (100 U/ml KIFN) is given as “induced”. The “phosphorylation of STAT 1 and STAT 3” value in experiment [4] (FRTL-5 cells, dsDNA within 6 hours of transfection) is “significantly lower and more delayed in time”. In addition, the “total STAT 1 protein” value in experiment [4] (readily measurable at 12 hours) was “greater and more advanced in time”.
